Experimental data: article PMC10560217, “Structural conservation of insulin/IGF signalling axis at the insulin receptors level in Drosophila and humans” (Nature Communications, 2023)

Molecular target: the molecule itself
Assay: cryo-EM structure; equal volumes of 10 uM dmIR-ECD and 50 uM DILP5 (five-molar hormone excess) in 50 mM Tris, 150 mM NaCl, pH 7.4; reconstruction at 4.0 A

B1: Drosophila insulin receptor ectodomain (dmIR-ECD) (domain or fragment, Drosophila melanogaster, UniProt P09208 264-1309, looked up)
chain: LPAHQQHLLHNDIADGLDKTALSVSGTQSRWTRSESNPTMRLSQNVKPCKSMDIRNMVSHFNQLENCTVIEGFLLIDLINDASPLNRSFPKLTEVTDYIIIYRVTGLHSLSKIFPNLSVIRGNKLFDGYALVVYSNFDLMDLGLHKLRSITRGGVRIEKNHKLCYDRTIDWLEILAENETQLVVLTENGKEKECRLSKCPGEIRIEEGHDTTAIEGELNASCQLHNNRRLCWNSKLCQTKCPEKCRNNCIDEHTCCSQDCLGGCVIDKNGNESCISCRNVSFNNICMDSCPKGYYQFDSRCVTANECITLTKFETNSVYSGIPYNGQCITHCPTGYQKSENKRMCEPCPGGKCDKECSSGLIDSLERAREFHGCTIITGTEPLTISIKRESGAHVMDELKYGLAAVHKIQSSLMVHLTYGLKSLKFFQSLTEISGDPPMDADKYALYVLDNRDLDELWGPNQTVFIRKGGVFFHFNPKLCVSTINQLLPMLASKPKFFEKSDVGADSNGNRGSCGTAVLNVTLQSVGANSAMLNVTTKVEIGEPQKPSNATIVFKDPRAFIGFVFYHMIDPYGNSTKSSDDPCDDRWKVSSPEKSGVMVLSNLIPYTNYSYYVRTMAISSELTNAESDVKNFRTNPGRPSKVTEVVATAISDSKINVTWSYLDKPYGVLTRYFIKAKLINRPTRNNNRDYCTEPLVKAMENDLPATTPTKKISDPLAGDCKCVEGSKKTSSQEYDDRKVQAGMEFENALQNFIFVPNIRKSKNGSSDKSDGAEGAALDSNAIPNGGATNPSRRRRDVALEPELDDVEGSVLLRHVRSITDDTDAFFEKDDENTYKDEEDLSSNKQFYEVFAKELPPNQTHFVFEKLRHFTRYAIFVVACREEIPSEKLRDTSFKKSLCSDYDTVFQTTKRKKFADIVMDLKVDLEHANNTESPVRVRWTPPVDPNGEIVTYEVAYKLQKPDQVEEKKCIPAADFNQTAGYLIKLNEGLYSFRVRANSIAGYGDFTEVEHIKVEPPPSYA
modifications: N-glycosylation at Asn606 (traces in the cryoEM reconstruction)
notes: a starting methionine was added in front; codon optimised; Asn335 is the first residue seen in the maps; Described as an (alpha-beta)2 homodimer; each protomer comes from one expressed precursor chain (alpha and beta subunits), protomers linked by disulfides; Mass used for ITC 233538 g/mol (the dimer); also called dmIR ectodomain; source: Sf9 cells, baculovirus, secreted into conditioned media, …
stoichiometry N: 2
